Test results published in paper PMC5548745, “Agonist-induced dimer dissociation as a macromolecular step in G protein-coupled receptor signaling” (Nature Communications, 2017).

Experiments:
[1] = test system: ERK1/2 phosphorylation in MLE-12 cells; assay: P-ERK1/2 immunoblot, WNT-5A stimulated MLE-12 cells; format: cell-based, mouse; conditions: 300 ng ml^−1 WNT-5A
Experimental: MLE-12 or HEK293 cells (ATCC) were plated in a 24- or 48-well plate at a density of 100,000 or 50,000 cells/well, respectively. After 24 h, cells were transfected using Lipofectamine 2000 according to the manufacturer’s instructions. Cells were stimulated (24 h post-transfection) with 300 ng ml^−1 recombinant carrier-free WNT-5A (CF WNT-5A; R&D Systems). Stimulation was stopped by the addition of lysis buffer (1% NP-40, 150 mM NaCl, 50 mM Tris/HCl pH 8). Lysates were sonicated and analyzed by 7.5 or 10% Mini-PROTEAN TGX precast polyacrylamide gels (Bio-Rad) and transferred to PVDF membranes using the Trans-Blot Turbo system (Bio-Rad). […] Proteins were detected with horseradish peroxidase-conjugated secondary antibodies (goat anti-rabbit and goat anti-mouse (Pierce)) and Clarity Western ECL Blotting Substrate (Bio-Rad). […]
Supplementary Figure 6: FZD6 in mouse lung epithelial cells, related to Figure 6. […] The bar graph depicts expression levels of fzd1-10 mRNA in mouse lung epithelial cells (MLE-12) measured by quantitative PCR. […] Primer efficiency has been quantified previously (Halleskog et al., 2012). (b) MLE-12 wt and CRISPR/Cas9 FZD6+/- cells were seeded in a 24-well plate and counted after trypsinization at the indicated time points. Cell proliferation was quantified by cell counting in a Bürker chamber. […]

FZD6–FZD6 dimer = assay: dcFRAP of V5-FZD6-mCherry/FZD6-GFP (FZD6 dimerization); format: cell-based, human; conditions: HEK293, after CL
Summary of the method: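 Live cells co-expressing V5-FZD6-mCherry and FZD6-GFP, surface V5 tag crosslinked with biotin-anti-V5 plus avidin in BE buffer at RT. Membrane areas photobleached, recovery imaged (488/561 nm) over 100 s; mobile fraction from background/bleach-corrected, pre-bleach-normalized intensity at 85-101 s. Cells with <40% crosslink-induced mobility reduction excluded.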

B1: WNT-5A: recombinant carrier-free WNT-5A (R&D Systems), agonist for FZDs (protein, UniProt P41221 62-380, looked up)
Protein Wnt-5a: IIGAQPLCSQLAGLSQGQKKLCHLYQDHMQYIGEGAKTGIKECQYQFRHRRWNCSTVDNTSVFGRVMQIGSRETAFTYAVSAAGVVNAMSRACREGELSTCGCSRAARPKDLPRDWLWGGCGDNIDYGYRFAKEFVDARERERIHAKGSYESARILMNLHNNEAGRRTVYNLADVACKCHGVSGSCSLKTCWLQLADFRKVGDALKEKYDSAAAMRLNSRGKLVQVNSRFNSPTTQDLVYIDPSPDYCVRNESTGSLGTQGRLCNKTSEGMDGCELMCCGRGYDQFKTVQTERCHCKFHWCCYVKCKKCTEIVDQFVCK
phosphorylation of ERK1/2 on WNT-5A stimulation [1]: time-dependent, partially pertussis toxin-sensitive phosphorylation of ERK1/2 | time of maximal increase in P-ERK1/2 ([1]; 0–20 min, three independent experiments): 5 min | mobile fraction of FZD6-GFP after WNT-5A, 5 min (FZD6–FZD6 dimer; WNT-5A 300 ng ml^−1, 5 min, 12 ROIs): 71.8 ± 3.2% | mobile fraction of FZD6-GFP after WNT-5A, 20 min (FZD6–FZD6 dimer; WNT-5A 300 ng ml^−1, 20 min, 15 ROIs): 61.0 ± 2.2%
